According to the supplement of paper PMC9112550, “Optimization of the antimicrobial peptide Bac7 by deep mutational scanning” (BMC Biology, 2022):

system: Escherichia coli TOP10; test: shrunken log2 fold change of peptide-encoding DNA abundance (4.5 h post-induction vs induction); higher = less antimicrobial activity (less host growth inhibition); details: time post-induction: 4.5 h; library: site-saturation at positions 5, 18, 19, 20
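Note: peptides expressed intracellularly from a pBAD plasmid library in pooled LB shake-flask culture, induced with 0.3% L-arabinose, DNA abundance read by NGS, three biological replicates, DESeq2 with apeglm shrinkage.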

Sequence | shrunken log2 fold change
RRIRQRPPRLPRPRPRPFLHPRP | 0.0118
RRIRQRPPRLPRPRPRPFMVPRP | -0.686
RRIRQRPPRLPRPRPRPFRTPRP | -0.255
RRIRQRPPRLPRPRPRPFRWPRP | -0.0233
RRIRQRPPRLPRPRPRPFSRPRP | 0.00616
RRIRQRPPRLPRPRPRPFSSPRP | -0.0951
RRIRQRPPRLPRPRPRPFSTPRP | 0.0344
RRIRQRPPRLPRPRPRPFSWPRP | -0.0597
RRIRQRPPRLPRPRPRPFTIPRP | 0.0944
RRIRQRPPRLPRPRPRPFTWPRP | -0.398
RRIRQRPPRLPRPRPRPFVGPRP | -0.237
RRIRQRPPRLPRPRPRPFVHPRP | -0.0465
RRIRQRPPRLPRPRPRPFVQPRP | -0.0936
RRIRQRPPRLPRPRPRPFVVPRP | 0.0366
RRIRQRPPRLPRPRPRPFYYPRP | -0.59
RRIRQRPPRLPRPRPRPGADPRP | 0.47
RRIRQRPPRLPRPRPRPGENPRP | -0.0193
RRIRQRPPRLPRPRPRPGFFPRP | 0.128
RRIRQRPPRLPRPRPRPGGNPRP | -0.0842
RRIRQRPPRLPRPRPRPGGRPRP | 0.456
RRIRQRPPRLPRPRPRPGHAPRP | 0.116
RRIRQRPPRLPRPRPRPGHGPRP | -0.124
RRIRQRPPRLPRPRPRPGHYPRP | -0.00181
RRIRQRPPRLPRPRPRPGIRPRP | 0.346
RRIRQRPPRLPRPRPRPGLFPRP | -0.176

Sequence | shrunken log2 fold change
RRIRQRPPRLPRPRPRPGMCPRP | 0.0819
RRIRQRPPRLPRPRPRPGMQPRP | 0.00486
RRIRQRPPRLPRPRPRPGMYPRP | -0.35
RRIRQRPPRLPRPRPRPGNDPRP | -0.299
RRIRQRPPRLPRPRPRPGPQPRP | 0.722
RRIRQRPPRLPRPRPRPGQGPRP | -0.000829
RRIRQRPPRLPRPRPRPGQRPRP | 0.0565
RRIRQRPPRLPRPRPRPGRYPRP | -0.205
RRIRQRPPRLPRPRPRPGTAPRP | 0.206
RRIRQRPPRLPRPRPRPGTVPRP | -0.00591
RRIRQRPPRLPRPRPRPGVGPRP | 0.18
RRIRQRPPRLPRPRPRPGVSPRP | -0.0696
RRIRQRPPRLPRPRPRPGWSPRP | 0.119
RRIRQRPPRLPRPRPRPGWTPRP | 0.286
RRIRQRPPRLPRPRPRPGWYPRP | 0.126
RRIRQRPPRLPRPRPRPGYDPRP | -0.0645
RRIRQRPPRLPRPRPRPHAIPRP | -0.562
RRIRQRPPRLPRPRPRPHANPRP | -0.671
RRIRQRPPRLPRPRPRPHCIPRP | 0.0493
RRIRQRPPRLPRPRPRPHCYPRP | -0.0282
RRIRQRPPRLPRPRPRPHEQPRP | 0.0505
RRIRQRPPRLPRPRPRPHGIPRP | 0.179
RRIRQRPPRLPRPRPRPHGVPRP | -0.226
RRIRQRPPRLPRPRPRPHHAPRP | -0.00332
RRIRQRPPRLPRPRPRPHHMPRP | -0.256

Sequence | shrunken log2 fold change
RRIRQRPPRLPRPRPRPHHSPRP | -0.107
RRIRQRPPRLPRPRPRPHIGPRP | -0.0345
RRIRQRPPRLPRPRPRPHKRPRP | -0.218
RRIRQRPPRLPRPRPRPHKWPRP | -0.2
RRIRQRPPRLPRPRPRPHLRPRP | -0.0964
RRIRQRPPRLPRPRPRPHMPPRP | -0.0493
RRIRQRPPRLPRPRPRPHPCPRP | -0.0985
RRIRQRPPRLPRPRPRPHPWPRP | 0.0242
RRIRQRPPRLPRPRPRPHQMPRP | 0.0681
RRIRQRPPRLPRPRPRPHRKPRP | -0.227
RRIRQRPPRLPRPRPRPHRLPRP | -0.0506
RRIRQRPPRLPRPRPRPHTQPRP | 0.0338
RRIRQRPPRLPRPRPRPHTVPRP | -0.484
RRIRQRPPRLPRPRPRPHWAPRP | -0.143
RRIRQRPPRLPRPRPRPIAQPRP | 0.0718
RRIRQRPPRLPRPRPRPICLPRP | 0.144
RRIRQRPPRLPRPRPRPICRPRP | 0.0232
RRIRQRPPRLPRPRPRPIEAPRP | -0.00454
RRIRQRPPRLPRPRPRPIHHPRP | -0.167
RRIRQRPPRLPRPRPRPIILPRP | -0.516
RRIRQRPPRLPRPRPRPIIRPRP | 0.00525
RRIRQRPPRLPRPRPRPIKIPRP | -0.0595
RRIRQRPPRLPRPRPRPILNPRP | -0.098
RRIRQRPPRLPRPRPRPILSPRP | 0.0165
RRIRQRPPRLPRPRPRPIMDPRP | -0.179

Sequence | shrunken log2 fold change
RRIRQRPPRLPRPRPRPIMPPRP | -0.361
RRIRQRPPRLPRPRPRPIPAPRP | 0.214
RRIRQRPPRLPRPRPRPIPNPRP | -0.0226
RRIRQRPPRLPRPRPRPIRMPRP | -0.291
RRIRQRPPRLPRPRPRPIRNPRP | -0.0231
RRIRQRPPRLPRPRPRPISPPRP | -0.0311
RRIRQRPPRLPRPRPRPITPPRP | -0.0347
RRIRQRPPRLPRPRPRPIWCPRP | -0.0171
RRIRQRPPRLPRPRPRPKAAPRP | -0.0496
RRIRQRPPRLPRPRPRPKASPRP | -0.0573
RRIRQRPPRLPRPRPRPKDCPRP | -0.00225
RRIRQRPPRLPRPRPRPKDHPRP | -0.185
RRIRQRPPRLPRPRPRPKDKPRP | -0.386
RRIRQRPPRLPRPRPRPKDRPRP | -0.115
RRIRQRPPRLPRPRPRPKDVPRP | 0.00879
RRIRQRPPRLPRPRPRPKEAPRP | 0.107
RRIRQRPPRLPRPRPRPKFKPRP | 0.0538
RRIRQRPPRLPRPRPRPKGNPRP | -0.365
RRIRQRPPRLPRPRPRPKHMPRP | -0.237
RRIRQRPPRLPRPRPRPKHRPRP | -0.0509
RRIRQRPPRLPRPRPRPKHSPRP | -0.0171
RRIRQRPPRLPRPRPRPKIEPRP | -0.32
RRIRQRPPRLPRPRPRPKIMPRP | -0.668
RRIRQRPPRLPRPRPRPKKCPRP | -0.0485
RRIRQRPPRLPRPRPRPKLWPRP | -0.0821

Sequence | shrunken log2 fold change
RRIRQRPPRLPRPRPRPKMCPRP | -0.002
RRIRQRPPRLPRPRPRPKNLPRP | -0.186
RRIRQRPPRLPRPRPRPKPDPRP | 0.313
RRIRQRPPRLPRPRPRPKPIPRP | -0.112
RRIRQRPPRLPRPRPRPKRMPRP | -0.0373
RRIRQRPPRLPRPRPRPKSAPRP | -0.0082
RRIRQRPPRLPRPRPRPKSSPRP | 0.0321
RRIRQRPPRLPRPRPRPKTNPRP | -0.117
RRIRQRPPRLPRPRPRPKTQPRP | 0.121
RRIRQRPPRLPRPRPRPKTWPRP | 1.14
RRIRQRPPRLPRPRPRPKYIPRP | -1.11
RRIRQRPPRLPRPRPRPKYKPRP | -0.445
RRIRQRPPRLPRPRPRPKYYPRP | -0.746
RRIRQRPPRLPRPRPRPLAEPRP | -0.0181
RRIRQRPPRLPRPRPRPLAKPRP | -0.041
RRIRQRPPRLPRPRPRPLCTPRP | -0.543
RRIRQRPPRLPRPRPRPLDHPRP | -0.198
RRIRQRPPRLPRPRPRPLDMPRP | 0.0532
RRIRQRPPRLPRPRPRPLDSPRP | -0.00448
RRIRQRPPRLPRPRPRPLEFPRP | 0.052
RRIRQRPPRLPRPRPRPLEQPRP | 0.0165
RRIRQRPPRLPRPRPRPLESPRP | -0.0344
RRIRQRPPRLPRPRPRPLEVPRP | -0.0417
RRIRQRPPRLPRPRPRPLFEPRP | 0.0725
RRIRQRPPRLPRPRPRPLFHPRP | -0.733

Sequence | shrunken log2 fold change
RRIRQRPPRLPRPRPRPLFSPRP | -0.258
RRIRQRPPRLPRPRPRPLGEPRP | 0.0549
RRIRQRPPRLPRPRPRPLGFPRP | 0.0916
RRIRQRPPRLPRPRPRPLGLPRP | 0.103
RRIRQRPPRLPRPRPRPLGYPRP | -0.0704
RRIRQRPPRLPRPRPRPLHAPRP | 0.164
RRIRQRPPRLPRPRPRPLIHPRP | -0.708
RRIRQRPPRLPRPRPRPLMTPRP | 0.0563
RRIRQRPPRLPRPRPRPLMYPRP | -0.608
RRIRQRPPRLPRPRPRPLPAPRP | 0.214
RRIRQRPPRLPRPRPRPLPRPRP | 0.724
RRIRQRPPRLPRPRPRPLRWPRP | 0.585
RRIRQRPPRLPRPRPRPLSLPRP | -0.0321
RRIRQRPPRLPRPRPRPLTEPRP | -0.22
RRIRQRPPRLPRPRPRPLTHPRP | 0.045
RRIRQRPPRLPRPRPRPLWLPRP | 0.0736
RRIRQRPPRLPRPRPRPLWYPRP | -0.367
RRIRQRPPRLPRPRPRPMAWPRP | -0.128
RRIRQRPPRLPRPRPRPMCPPRP | 0.00821
RRIRQRPPRLPRPRPRPMCQPRP | -0.053
RRIRQRPPRLPRPRPRPMDRPRP | 0.0291
RRIRQRPPRLPRPRPRPMELPRP | -0.109
RRIRQRPPRLPRPRPRPMGRPRP | -0.00151
RRIRQRPPRLPRPRPRPMGWPRP | 0.379
RRIRQRPPRLPRPRPRPMHDPRP | -0.0216
